From publication PMC5996148 come the findings set out here.

Series [1] concerns the target La ribonucleoprotein domain family, member 1 (human) (UniProt Q6PKG0). Description: protein microarray. As to conditions: 3'-biotin; Microarray: 20 mM Tris pH 7.5, 5 mM MgCl2, 100 mM KCl, 0.1% Tween-20, A/T-rich ON blocker mix; EMSA: 20 mM Tris-HCl pH 8, 100 mM KCl, 200 nM ON, 0-200 nM BRD3 …. (In general: In EMSA bound probe runs differently from free probe, usually more slowly.)

Series [2] concerns the target T1, small trans-membrane and glycosylated protein (human) (UniProt O95332).
T1 sequence: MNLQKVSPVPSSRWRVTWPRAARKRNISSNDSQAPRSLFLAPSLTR
Description: protein microarray. As to conditions: 3'-biotin; Microarray: 20 mM Tris pH 7.5, 5 mM MgCl2, 100 mM KCl, 0.1% Tween-20, A/T-rich ON blocker mix; EMSA: 20 mM Tris-HCl pH 8, 100 mM KCl, 200 nM ON, 0-200 nM BRD3 ….

For the sequence “GGGAGGCTGAGGCAGG [G4-1 biotinylated (PQS2)]”, the binding signal in series [1] is 4.49 Z-score; in series [2], 3.31 Z-score.
As to “GGGGACAGGGGTATGGGGAGGGG [G4-3 biotinylated (CtG)]”, the binding signal in series [1] is 4.71 Z-score; in series [2], 4.59 Z-score.
In the same order, the values of “GGTGACAGGGGTATGGGGAGGGG [G4-2 biotinylated (Ct1)]” are 5.37 Z-score and 5.81 Z-score.
